Publication doi:10.1101/2023.04.03.535455 (bioRxiv, 2023)
Values belong to the binder of their own block, whether it stands above or below them.

What was measured:
[1] = target: T1, His-PI31 wild-type (human) (human), Q92530; assay: mass photometry; conditions: remark: other sources report otherwise
T1 chain: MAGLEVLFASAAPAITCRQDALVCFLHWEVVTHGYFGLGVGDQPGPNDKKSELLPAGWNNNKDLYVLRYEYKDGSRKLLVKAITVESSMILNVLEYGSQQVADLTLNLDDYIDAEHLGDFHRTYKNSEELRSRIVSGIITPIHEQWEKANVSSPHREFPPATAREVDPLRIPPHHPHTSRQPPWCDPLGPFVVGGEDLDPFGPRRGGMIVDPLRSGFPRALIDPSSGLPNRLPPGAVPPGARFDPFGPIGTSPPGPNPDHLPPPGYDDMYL

[2] = target: T2, recombinant wild-type human PI31 (Proteasome Inhibitor of 31,000 daltons) (human, UniProt Q92530 1-271); assay: cryo-EM structure
T2 sequence: T1 chain

stoichiometry N [1]: 2
B1: His-PI31 wild-type (human), Q92530 1-271 (natural protein)
chain: T1 chain

binding result [2]: binds
B2: β5 subunit of the bovine 20S proteasome (natural protein)
chain: TTTLAFKFRHGVIVAADSRATAGAYIASQTVKKVIEINPYLLGTMAGGAADCSFWERLLARQCRIYELRNKERISVAAASKLLANMVYQYKGMGLSMGTMICGWDKRGPGLYYVDSEGNRISGATFSVGSGSVYAYGVMDRGYSYDLEVEEAYDLARRAIYQATYRDAYSGGSVSLYHVREDGWIRVSSDNVADLHDKYSGSTH

binding result [2]: binds
B3: β2 subunit of the bovine 20S proteasome (natural protein)
chain: TTIAGVVYKDGIVLGADTRATEGMVVADKNCSKIHFISPNIYCCGAGTAADTDMTTQLISSNLELHSLSTGRLPRVVTANRMLKQMLFRYQGYIGAALVLGGVDVTGPHLYSIYPHGSTDKLPYVTMGSGSLAAMAVFEDKFRPDMEEEEAKKLVSEAIAAGIFNDLGSGSNIDLCVISKSKLDFLRPYSVPNKKGTRFGRYRCEKGTNAVLTEKVTTLEIEVLEETVQTMDTS
